How the values were obtained:
Spike protein RBD = Spike protein RBD (Severe acute respiratory syndrome …, UniProt P0DTC2); test: ELISA
Spike protein NTD = Spike protein NTD (Severe acute respiratory syndrome …, UniProt P0DTC2); test: ELISA

B1: Asialoglycoprotein receptor 1 (protein)
chain: MTKEYQDLQHLDNEESDHHQLRKGPPPPQPLLQRLCSGPRLLLLSLGLSLLLLVVVCVIGSQNSQLQEELRGLRETFSNFTASTEAQVKGLSTQGGNVGRKMKSLESQLEKQQKDLSEDHSSLLLHVKQFVSDLRSLSCQMAALQGNGSERTCCPVNWVEHERSCYWFSRSGKAWADADNYCRLEDAHLVVVTSWEEQKFVQHHIGPVNTWMGLHDQNGPWKWVDGTDYETGFKNWRPEQPDDWYGHGLGGGEDCAHFTDDGRWNDDVCQRPYRWVCETELDKASQEPPLL
Spike protein RBD
  Kd: 269 nM
Spike protein NTD
  Kd: 179 nM
